{
  "source": "paper PMC4540666",
  "binders": {"B1": {"name": "SLP-76 pY173 peptide (Ac-NSMpY173IDRPPTGK-NH2) (peptide)", "peptide": "Ac-NSM[pY]IDRPPTGK-NH2", "SMILES": "CC[C@H](C)[C@H](NC(=O)[C@H](Cc1ccc(OP(=O)(O)O)cc1)NC(=O)[C@H](CCSC)NC(=O)[C@H](CO)NC(=O)[C@H](CC(N)=O)NC(C)=O)C(=O)N[C@@H](CC(=O)O)C(=O)N[C@@H](CCCNC(=N)N)C(=O)N1CCC[C@H]1C(=O)N1CCC[C@H]1C(=O)N[C@H](C(=O)NCC(=O)N[C@@H](CCCCN)C(N)=O)[C@@H](C)O"}},
  "key": {"[1]": {"molecular_target": "PLCγ1 SH2C domain (C-terminal SH2 domain of PLCγ1) (rat) (UniProt P10686)", "experiment": "other fluorescence titration"}, "PLCγ1 SH2C-linker (rat)": {"molecular_target": "PLCγ1 SH2C-linker (rat) (UniProt P10686)", "experiment": "other fluorescence titration"}},
  "note": "[ ]: non-standard residue; d: D form. pY = N[C@@H](Cc1ccc(OP(=O)(O)O)cc1)C(=O)O",
  "data": [
    {"binder": "B1", "values": [
      {"measurement": "Kd", "setting": "[1]", "value": 1600, "unit": "nM"},
      {"measurement": "Kd", "setting": "PLCγ1 SH2C-linker (rat)", "value": 2900, "unit": "nM"}
    ]}
  ]
}
